Data from PMC6934851, “Yeast R2TP Interacts with Extended Termini of Client Protein Nop58p” (Scientific Reports, 2019).

T1: Maltose Binding Protein (MBP)-fused Nop58p_447 (S. cerevisiae, UniProt Q12499 1-447)
T1 chain: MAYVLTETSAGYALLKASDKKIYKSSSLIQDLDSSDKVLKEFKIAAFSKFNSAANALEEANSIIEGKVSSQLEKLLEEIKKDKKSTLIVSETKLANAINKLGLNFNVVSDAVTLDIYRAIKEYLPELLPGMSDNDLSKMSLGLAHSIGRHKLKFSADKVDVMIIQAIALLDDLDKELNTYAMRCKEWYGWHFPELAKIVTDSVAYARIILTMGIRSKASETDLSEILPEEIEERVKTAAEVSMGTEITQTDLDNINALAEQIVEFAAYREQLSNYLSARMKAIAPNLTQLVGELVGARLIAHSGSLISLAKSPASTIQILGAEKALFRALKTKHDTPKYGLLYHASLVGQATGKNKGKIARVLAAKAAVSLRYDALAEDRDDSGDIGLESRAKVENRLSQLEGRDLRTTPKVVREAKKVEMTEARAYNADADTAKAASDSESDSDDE

B1: Pih1p-Tah1p heterodimer (complex, yeast)
chain 1: MADFLLRPIKQRHRNEDKYVSVDAADGSVSKIEPIADFVIKTKLLSANGPEKLQDGRKVFINVCHSPLVPKPEVDFNARIVFPLIIQNEWEIPIITSCYRMDHDKKGQECYVWDCCINSDCSRWICDDIQLREILVEWCLESCEIRDSVVLCRDRIAFPKMKKKGAELPALEVLNDELHQDYKAKMHKIIEEEAGDPMSILRGRNDDGDDNNDPDDGTLPPLFPIENKISGAKIEEIDKNEIAHRNLKQAPAPAPAPHEQQEDVPEYEVKMKRFKGAAYKLRILIENKAPNSKPDRFSPSYNFAENILYINGKLSIPLPRDIVVNAADIKIFHIRKERTLYIYI
chain 2: MSQFEKQKEQGNSLFKQGLYREAVHCYDQLITAQPQNPVGYSNKAMALIKLGEYTQAIQMCQQGLRYTSTAEHVAIRSKLQYRLELAQGAVGSVQIPVVEVDELPEGYDRS
notes: Tah1p, yeast, YCR060W; also called His-Pih1p-Tah1p; source: purified
B2: Pih1p (natural protein, yeast, UniProt P38768 1-344, looked up)
chain: B1 chain 1
notes: Subunit as it stood in the MBP-Nop58p_447-R2TP complex; source: purified as His-Pih1p-Tah1p, within reconstituted R2TP
B3: Maltose Binding Protein (MBP)-fused Nop58p_447 (domain or fragment, S. cerevisiae, UniProt Q12499 1-447, looked up)
chain: T1 chain
notes: In the cross-linking and cryo-EM sections the text often calls this MBP fusion simply Nop58p_447; also called MBP-Nop58p_447; MBP-Nop58_447; source: E. coli, purified (amylose, monoQ, gel filtration); not shown: MBP, N-terminal, kept

How the values were obtained:
[1] = molecular target: B3; assay: ITC; MBP-Nop58p in the sample cell (MBP-Nop58p_447 at 7.8 μM), Pih1p-Tah1p in the injector at 99.6 μM; 25 °C; 25 mM HEPES, 150 mM NaCl, 5% glycerol, 5 mM beta-ME, pH 7.5; One Site model; conditions: both partners purified
[2] = molecular target: T1, Maltose Binding Protein (MBP)-fused …; assay: ITC
[3] = molecular target: T2, Rvb1p (yeast, UniProt Q03940 1-463); assay: cross-linking; co-purified MBP-Nop58p_447-R2TP complex, BS3-d0/BS3-d4 for 30 min, SDS-PAGE, trypsin, mass spectrometry; conditions: both partners purified
T2 construct: Rvb1p, yeast AAA+ ATPase; Subunit as it stood in the MBP-Nop58p_447-R2TP complex; also called Ruv1p; source: purified as Rvb1/2p heterocomplex, within reconstituted R2TP

[4] = molecular target: B3; assay: as above; conditions: both partners purified
[5] = molecular target: T3, Rvb2p (yeast, UniProt Q12464 1-471); assay: as above; conditions: both partners purified
T3 construct: Rvb2p, yeast AAA+ ATPase; Subunit as it stood in the MBP-Nop58p_447-R2TP complex; also called Ruv2p; source: purified as Rvb1/2p heterocomplex, within reconstituted R2TP
T3 sequence (Q12464 whole entry): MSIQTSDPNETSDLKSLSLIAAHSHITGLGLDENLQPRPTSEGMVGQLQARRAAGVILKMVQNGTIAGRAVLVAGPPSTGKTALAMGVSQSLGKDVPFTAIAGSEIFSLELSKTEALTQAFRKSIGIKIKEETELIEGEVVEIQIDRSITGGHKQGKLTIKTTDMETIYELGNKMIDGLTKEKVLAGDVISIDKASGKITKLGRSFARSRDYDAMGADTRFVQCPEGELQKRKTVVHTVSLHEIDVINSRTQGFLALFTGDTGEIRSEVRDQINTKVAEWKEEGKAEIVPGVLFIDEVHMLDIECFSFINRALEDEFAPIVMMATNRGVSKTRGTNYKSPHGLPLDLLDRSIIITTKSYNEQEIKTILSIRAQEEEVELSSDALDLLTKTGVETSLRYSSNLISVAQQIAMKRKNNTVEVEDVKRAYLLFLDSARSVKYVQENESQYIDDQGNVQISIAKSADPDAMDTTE

T2 sequence (Q03940 whole entry): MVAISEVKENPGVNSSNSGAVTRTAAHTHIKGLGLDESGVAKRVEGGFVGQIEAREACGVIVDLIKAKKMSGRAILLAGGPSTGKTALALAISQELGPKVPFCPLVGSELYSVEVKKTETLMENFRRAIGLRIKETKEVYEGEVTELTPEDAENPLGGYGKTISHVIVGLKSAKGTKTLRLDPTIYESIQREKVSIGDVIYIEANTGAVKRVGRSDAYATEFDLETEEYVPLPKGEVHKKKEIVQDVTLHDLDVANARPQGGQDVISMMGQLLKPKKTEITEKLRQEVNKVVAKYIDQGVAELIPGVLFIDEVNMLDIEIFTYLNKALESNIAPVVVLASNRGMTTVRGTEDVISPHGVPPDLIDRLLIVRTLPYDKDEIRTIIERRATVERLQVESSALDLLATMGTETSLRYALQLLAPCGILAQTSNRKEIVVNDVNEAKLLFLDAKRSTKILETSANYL

stoichiometry N [1]	Kd [2]	binding result [3]	binding result [4]	binding result [5]	Binder
1	440 nM	–	–	–	B1
–	–	binds	binds	–	B2
–	–	binds	–	binds	B3
